Experimental data taken from the supplement of paper PMC10567573.

Assay: protein stability index of a GFP-peptide fusion (GPS, HEK-293T) (PSI 1-6); higher = more stable
Conditions: c terminus: native
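Further: lentivirally expressed fusion library, cells FACS-sorted into six equal-sized GFP/DsRed ratio bins, PSI computed from sequencing read fractions per bin weighted by bin number.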

HSLRAVSTDPPHHDHHDEFCLMPC [BEX2 addC]
protein stability index (parent: NP_116010.1): 3.48

EQRNSRWNTVLRAVKAKTHHLEPC [TRPA1 addC]
protein stability index (parent: NP_015628.1): 4.32

CQPISFSGFGAEDDDLGGLGLGPC [POLD2 addC]
protein stability index (parent: NP_006221.1): 2.27

LPALFTDLYSQEITAEEAREALPC [SNF8 addC]
protein stability index (parent: NP_009172.2): 3.81

DGWIRVSSDNVADLHEKYSGSTPC [PSMB5 addC]
protein stability index (parent: NP_002788.1): 2.89
